Test results published in patent US5700777A, “Fatty acid - pulmonary surfactant conjugates” (Abbott Laboratories, priority 1995, dated 1997).

B1: SPB(1-78): synthetic full length SP-B peptide, sequence based on natural SP-B (peptide, UniProt P07988 201-279, looked up)
Pulmonary …: FPIPLPYCWLCRALIKRIQAMIPKGALAVAVAQVCRVVPLVAGGICQCLAERYSVILLDTLLGRMLPQLVCRLVLRCSM
modifications: Pulmonary surfactant-associated protein B

How the values were obtained:
Format in all cases: physicochemical
[1] = Modified Wilhelmy surface balance (Langmuir trough): dynamic surface tension versus compressed surface area; settings: for Surface activity of admixtures, in words: data of Tables 2 and 3 (Wilhelmy balance, King-Clements, pulsating bubble); for Wilhelmy-Langmuir Trough Equilibrum (equilibrium adsorption value): after a three (3) minute spreading time, total peptide 0.5 mg/ml; for Wilhelmy-Langmuir Trough Equilibrum (equilibrium adsorption value) / Wilhelmy-Langmuir Trough Max (maximum dynamic surface tension) / Wilhelmy-Langmuir Trough Min (minimum dynamic surface tension): 37° C.; for Wilhelmy-Langmuir Trough Max (maximum dynamic surface tension) / Wilhelmy-Langmuir Trough Min (minimum dynamic surface tension): peptide/lipid admixture, total peptide 0.5 mg/ml (two peptides: 0.25 mg/ml each), 675 μg phospholipid, seven compression-expansion cycles, average of 3 runs
Description: The dynamic surface tension lowering properties of the peptide/lipid admixtures were studied using a modified Wilhelmy Surface Balance (Langmuir Trough). The instrument consists of an all Teflon trough and movable Teflon ribbon (dam) barrier system which completely contains and defines a variable surface area. Surface area was varied through the use of a constant rate reversible 3-phase motor to drive the Teflon barrier. A Cahn 2000 electrobalance (Cahn Instruments, Cerittos, CA) with a sandblasted 1 cm platinum plate and stainless steel hangdown wire was employed to determine the surface tension at the liquid-air interface. The entire apparatus was situated in a thermostated incubator set at 45° C. Surface area-surface tension measurements were made by adding 950 ml of 0.15M NaCl to the trough. Subphase temperature was controlled during the measurements at 36°-38° C.
For each experiment 27 ul of peptide/lipid admixture was applied in a random array of 13 (.congruent.2 ul) droplets to the surface of the temperature controlled subphase and allowed to spread spontaneously for 3 minutes. (The 27 ul application corresponds to 675 ug of phospholipid). The trough surface area was then cycled from a maximum (445 sq. cm) to a minimum (178 sq. cm) surface area and back to maximum at a cycling rate of 3 cycles/min (compression ratio 2.5:1). The dynamic surface tension vs surface area was recorded for 7 complete compression-expansion cycles for each application.

[2] = Pulsating bubble surfactometer (PBS) surface tension; settings: after 100 cycles (5 minutes, 20 cycles/minute); phospholipid 1 mg/ml; 37° C.; diluent […] NaCl; mean of triplicate
Experimental: The PBS equipment (Electronetics, Buffalo, N.Y.) used was essentially equivalent to that described in detail by G. Enhorning, J. Appld. Physiol. 43, 198-203, (1977). Recordings were made of the pressure gradient across the wall of a small air bubble, communicating with ambient air by means of a narrow chimney stack, but otherwise entirely surrounded by a 40 ul volume of the peptide/lipid admixture. The admixture concentration employed for these studies was 1 mg/ml total phospholipid (0.02 mg/ml total peptide) and the diluent was 0.15M NaCl. Immediately prior to loading the sample chamber, the diluted samples were sonicated for 15 seconds to remove any gas nuclei.
The pressure drop across the air-water interface was measured during pulsation by a pressure transducer, and the corresponding surface tension determined through the application of Young's law and the Laplace equation. Measurements were all made at 37° C. and the bubble pulsed at 20 cycles/minute to render respectively a maximum (1.1 mm) and a minimum (0.8 mm) bubble diameter. (This compression/expansion corresponds to a 50% change the surface area of the air-water interface).

[3] = Adsorption rate, King-Clements system (Wilhelmy balance with stirred round Teflon dish); settings: 10 ml of diluted sample (1:50) added under constant agitation to 70 ml saline subphase; 37° C.
Experimental: A procedure similar to that described by Notter, et al., Pediatric Res. 16, 515-519, (1982) was employed to determine the absorption rate in the absence of diffusion resistance. The modified Wilhelmy surface balance as described above was used. However, instead of using a Langmuir trough a round Teflon dish (5.1 cm diameter) was employed. The subphase, 70 ml of 0.15M NaCl, was allowed to equilibrate to 37° C. in the incubator and was continuously stirred with a Teflon coated magnetic stirer. An aliquot of the peptide/lipid admixture containing 5 mg of total phospholipid was dispersed in 10 ml of 0.15M NaCl by vortexing for 10 seconds. This dispersion was then added to the saline subphase. Surface tension lowering was monitored using a strip chart recorder connected to the electrobalance output and data collected for 20 minutes.

Molecule	Surface activity of admixtures, in words [1]	Surface Tension Values Maximum (pulsating bubble apparatus) [2] [dynes/cm]	Surface Tension Values Minimum (pulsating bubble apparatus) [2] [dynes/cm]	Wilhelmy-Langmuir Trough Equilibrum (equilibrium adsorption value) [1] [dynes/cm]	Wilhelmy-Langmuir Trough Max (maximum dynamic surface tension) [1] [dynes/cm]	Wilhelmy-Langmuir Trough Min (minimum dynamic surface tension) [1] [dynes/cm]	King-Clements Adsorption (adsorption surface tension) [3] [dynes/cm]
C-16 (Palmitic acid)-SP-C (FGIPCCPVHLKRLLIVVVVVVLIVVVIVGALLMG; Pulmonary surfactant-associated protein C N-terminal palmitic acid; UniProt P11686 24-57, looked up, fragment) [C16 -SPC(1-34)]	unusual surface activity	–	–	–	–	–	–
SPB(53-78): synthetic C-terminal SP-B fragment, sequence based on natural SP-B (YSVILLDTLLGRMLPQLVCRLVLRCS; Pulmonary surfactant-associated protein B; UniProt P07988 253-278, looked up, fragment) [reference compound]	–	55.5	4.9	40.0	49.3	0.1	45.0
C-14 (Myristic acid)-SP-C (FGIPCCPVHLKRLLIVVVVVVLIVVVIVGALLMG; Pulmonary surfactant-associated protein C N-terminal myristic acid; UniProt P11686 24-57, looked up, fragment) [C14 -SPC(1-34), myristic acid (C14) covalently attached to the N-terminal end of synthetic human SP-C(1-34)]	unusual surface activity	–	–	–	–	–	–
B1	–	49.0	4.2	38.0	45.0	0.0	30.0
